# Patent US20230406885A1, “CYCLIC PEPTIDES FOR TRAPPING INTERLEUKIN-1 BETA” (MERCK SHARP & DOHME LLC, priority 2022, published 2023)
# *1 amine or outer side, *2 acyl side, *3 side chain or, on linkers, in order; H or OH if unused. [ ]: non-standard residue; d: D form. TyrEtNAc = L-tyrosine O-ethyl acetamide, (S)-3-(4-(2-acetamidoethoxy)phenyl)-2-aminopropanoic acid, CC(=O)NCCOc1ccc(C[C@H](N[*:1])C(=O)[*:2])cc1; 3Pal4Ph4CO2H = (S)-4-(5-(2-amino-2-carboxyethyl)pyridin-2-yl)benzoic acid, O=C([C@H](Cc1ccc(-c2ccc(C(=O)[*:3])cc2)nc1)N[*:1])[*:2]; TyrEtMor = (S)-2-amino-3-(4-(2-morpholinoethoxy)phenyl)propanoic acid, O=C([C@H](Cc1ccc(OCCN2CCOCC2)cc1)N[*:1])[*:2]; Pro(trans-4-NH2) = O=C([C@@H]1C[C@@H](N[*:3])CN1[*:1])[*:2]; Bip(4'-COOH) = N[C@@H](Cc1ccc(-c2ccc(C(=O)O)cc2)cc1)C(=O)O; 1Nal(3S-Me) = C[C@@H](c1cccc2ccccc12)[C@H](N)C(=O)O; Ala(indazol-1-yl) = N[C@@H](Cn1ncc2ccccc21)C(=O)O; Ala(indolin-1-yl) = N[C@@H](CN1CCc2ccccc21)C(=O)O; Ala(pyrimidin-5-yl) = N[C@@H](Cc1cncnc1)C(=O)O; Phe(4-COOH) = N[C@@H](Cc1ccc(C(=O)O)cc1)C(=O)O; Trp(7-aza) = N[C@@H](Cc1c[nH]c2ncccc12)C(=O)O; h3Pal(5-CN) = N#Cc1cncc(CC[C@H](N)C(=O)O)c1; 1Nal = N[C@@H](Cc1cccc2ccccc12)C(=O)O; hTyr = N[C@@H](CCc1ccc(O)cc1)C(=O)O; hPhe = N[C@@H](CCc1ccccc1)C(=O)O; dDab = NCC[C@@H](N)C(=O)O; dNMeA = CN[C@H](C)C(=O)O; Dab = NCC[C@H](N)C(=O)O; Dap = NC[C@H](N)C(=O)O; Aib = CC(C)(N)C(=O)O
# B1: SEQ ID NO: 113 (peptide)
# peptide: cyclo([TyrEtNAc]W[Phe(4-COOH)]G[Pro(trans-4-NH2)][1Nal(3S-Me)]D[dNMeA]G[Bip(4'-COOH)][Ala(pyrimidin-5-yl)]G[dDab][h3Pal(5-CN)])
# SMILES: CC(=O)NCCOc1ccc(C[C@@H]2NC(=O)[C@H](CCc3cncc(C#N)c3)NC(=O)[C@@H](CCN)NC(=O)CNC(=O)[C@H](Cc3cncnc3)NC(=O)[C@H](Cc3ccc(-c4ccc(C(=O)O)cc4)cc3)NC(=O)CNC(=O)[C@@H](C)N(C)C(=O)[C@H](CC(=O)O)NC(=O)[C@H]([C@@H](C)c3cccc4ccccc34)NC(=O)[C@@H]3C[C@@H](N)CN3C(=O)CNC(=O)[C@H](Cc3ccc(C(=O)O)cc3)NC(=O)[C@H](Cc3c[nH]c4ccccc34)NC2=O)cc1
# B2: SEQ ID NO: 114 (peptide)
# peptide: cyclo([TyrEtNAc]W[Phe(4-COOH)]G[Pro(trans-4-NH2)][1Nal(3S-Me)]D[dNMeA]G[Bip(4'-COOH)][Trp(7-aza)]G[dDab][h3Pal(5-CN)])
# SMILES: CC(=O)NCCOc1ccc(C[C@@H]2NC(=O)[C@H](CCc3cncc(C#N)c3)NC(=O)[C@@H](CCN)NC(=O)CNC(=O)[C@H](Cc3c[nH]c4ncccc34)NC(=O)[C@H](Cc3ccc(-c4ccc(C(=O)O)cc4)cc3)NC(=O)CNC(=O)[C@@H](C)N(C)C(=O)[C@H](CC(=O)O)NC(=O)[C@H]([C@@H](C)c3cccc4ccccc34)NC(=O)[C@@H]3C[C@@H](N)CN3C(=O)CNC(=O)[C@H](Cc3ccc(C(=O)O)cc3)NC(=O)[C@H](Cc3c[nH]c4ccccc34)NC2=O)cc1
# B3: SEQ ID NO: 115 (peptide)
# peptide: cyclo([TyrEtNAc]W[Phe(4-COOH)]G[Pro(trans-4-NH2)][1Nal(3S-Me)]D[dNMeA]G[Bip(4'-COOH)]W[Dab][dA][hPhe])
# SMILES: CC(=O)NCCOc1ccc(C[C@@H]2NC(=O)[C@H](CCc3ccccc3)NC(=O)[C@@H](C)NC(=O)[C@H](CCN)NC(=O)[C@H](Cc3c[nH]c4ccccc34)NC(=O)[C@H](Cc3ccc(-c4ccc(C(=O)O)cc4)cc3)NC(=O)CNC(=O)[C@@H](C)N(C)C(=O)[C@H](CC(=O)O)NC(=O)[C@H]([C@@H](C)c3cccc4ccccc34)NC(=O)[C@@H]3C[C@@H](N)CN3C(=O)CNC(=O)[C@H](Cc3ccc(C(=O)O)cc3)NC(=O)[C@H](Cc3c[nH]c4ccccc34)NC2=O)cc1
# B4: SEQ ID NO: 116 (peptide)
# peptide: cyclo([TyrEtNAc]W[Phe(4-COOH)]G[Pro(trans-4-NH2)][1Nal(3S-Me)]D[dNMeA]G[Bip(4'-COOH)]W[Dab][dA][hTyr])
# SMILES: CC(=O)NCCOc1ccc(C[C@@H]2NC(=O)[C@H](CCc3ccc(O)cc3)NC(=O)[C@@H](C)NC(=O)[C@H](CCN)NC(=O)[C@H](Cc3c[nH]c4ccccc34)NC(=O)[C@H](Cc3ccc(-c4ccc(C(=O)O)cc4)cc3)NC(=O)CNC(=O)[C@@H](C)N(C)C(=O)[C@H](CC(=O)O)NC(=O)[C@H]([C@@H](C)c3cccc4ccccc34)NC(=O)[C@@H]3C[C@@H](N)CN3C(=O)CNC(=O)[C@H](Cc3ccc(C(=O)O)cc3)NC(=O)[C@H](Cc3c[nH]c4ccccc34)NC2=O)cc1
# B5: SEQ ID NO: 117 (peptide)
# peptide: cyclo([TyrEtNAc]W[Phe(4-COOH)]G[Pro(trans-4-NH2)][1Nal(3S-Me)]D[dNMeA]G[Bip(4'-COOH)]W[Dap][Aib][hTyr])
# SMILES: CC(=O)NCCOc1ccc(C[C@@H]2NC(=O)[C@H](CCc3ccc(O)cc3)NC(=O)C(C)(C)NC(=O)[C@H](CN)NC(=O)[C@H](Cc3c[nH]c4ccccc34)NC(=O)[C@H](Cc3ccc(-c4ccc(C(=O)O)cc4)cc3)NC(=O)CNC(=O)[C@@H](C)N(C)C(=O)[C@H](CC(=O)O)NC(=O)[C@H]([C@@H](C)c3cccc4ccccc34)NC(=O)[C@@H]3C[C@@H](N)CN3C(=O)CNC(=O)[C@H](Cc3ccc(C(=O)O)cc3)NC(=O)[C@H](Cc3c[nH]c4ccccc34)NC2=O)cc1
# B6: SEQ ID NO: 118 (peptide)
# peptide: cyclo([TyrEtNAc]W[Phe(4-COOH)]G[Pro(trans-4-NH2)][1Nal(3S-Me)]D[dNMeA]G[Bip(4'-COOH)]W[Dap][dA]A)
# SMILES: CC(=O)NCCOc1ccc(C[C@@H]2NC(=O)[C@H](C)NC(=O)[C@@H](C)NC(=O)[C@H](CN)NC(=O)[C@H](Cc3c[nH]c4ccccc34)NC(=O)[C@H](Cc3ccc(-c4ccc(C(=O)O)cc4)cc3)NC(=O)CNC(=O)[C@@H](C)N(C)C(=O)[C@H](CC(=O)O)NC(=O)[C@H]([C@@H](C)c3cccc4ccccc34)NC(=O)[C@@H]3C[C@@H](N)CN3C(=O)CNC(=O)[C@H](Cc3ccc(C(=O)O)cc3)NC(=O)[C@H](Cc3c[nH]c4ccccc34)NC2=O)cc1
# B7: SEQ ID NO: 119 (peptide)
# peptide: cyclo([TyrEtNAc]W[Phe(4-COOH)]G[Pro(trans-4-NH2)][1Nal(3S-Me)]D[dNMeA]G[Bip(4'-COOH)]W[Dap][dA][hTyr])
# SMILES: CC(=O)NCCOc1ccc(C[C@@H]2NC(=O)[C@H](CCc3ccc(O)cc3)NC(=O)[C@@H](C)NC(=O)[C@H](CN)NC(=O)[C@H](Cc3c[nH]c4ccccc34)NC(=O)[C@H](Cc3ccc(-c4ccc(C(=O)O)cc4)cc3)NC(=O)CNC(=O)[C@@H](C)N(C)C(=O)[C@H](CC(=O)O)NC(=O)[C@H]([C@@H](C)c3cccc4ccccc34)NC(=O)[C@@H]3C[C@@H](N)CN3C(=O)CNC(=O)[C@H](Cc3ccc(C(=O)O)cc3)NC(=O)[C@H](Cc3c[nH]c4ccccc34)NC2=O)cc1
# B8: SEQ ID NO: 12 (peptide)
# peptide: cyclo([Bip(4'-COOH)]W[Phe(4-COOH)]G[Pro(trans-4-NH2)][1Nal(3S-Me)]D[dNMeA]G[3Pal4Ph4CO2H]W[Dap][dA][hTyr])
# SMILES: C[C@@H]1C(=O)NCC(=O)N[C@@H](Cc2ccc(-c3ccc(C(=O)O)cc3)nc2)C(=O)N[C@@H](Cc2c[nH]c3ccccc23)C(=O)N[C@@H](CN)C(=O)N[C@H](C)C(=O)N[C@@H](CCc2ccc(O)cc2)C(=O)N[C@@H](Cc2ccc(-c3ccc(C(=O)O)cc3)cc2)C(=O)N[C@@H](Cc2c[nH]c3ccccc23)C(=O)N[C@@H](Cc2ccc(C(=O)O)cc2)C(=O)NCC(=O)N2C[C@H](N)C[C@H]2C(=O)N[C@@H]([C@@H](C)c2cccc3ccccc23)C(=O)N[C@@H](CC(=O)O)C(=O)N1C
# B9: SEQ ID NO: 120 (peptide)
# peptide: cyclo([TyrEtNAc]W[Phe(4-COOH)]G[Pro(trans-4-NH2)][1Nal(3S-Me)]D[dNMeA]G[Bip(4'-COOH)]W[Dap][dA][TyrEtMor])
# SMILES: CC(=O)NCCOc1ccc(C[C@@H]2NC(=O)[C@H](Cc3ccc(OCCN4CCOCC4)cc3)NC(=O)[C@@H](C)NC(=O)[C@H](CN)NC(=O)[C@H](Cc3c[nH]c4ccccc34)NC(=O)[C@H](Cc3ccc(-c4ccc(C(=O)O)cc4)cc3)NC(=O)CNC(=O)[C@@H](C)N(C)C(=O)[C@H](CC(=O)O)NC(=O)[C@H]([C@@H](C)c3cccc4ccccc34)NC(=O)[C@@H]3C[C@@H](N)CN3C(=O)CNC(=O)[C@H](Cc3ccc(C(=O)O)cc3)NC(=O)[C@H](Cc3c[nH]c4ccccc34)NC2=O)cc1
# B10: SEQ ID NO: 13 (peptide)
# peptide: cyclo([Bip(4'-COOH)]W[Phe(4-COOH)]G[Pro(trans-4-NH2)][1Nal(3S-Me)]D[dNMeA]G[Bip(4'-COOH)][Ala(indazol-1-yl)][Dap][dA][hTyr])
# SMILES: C[C@@H]1C(=O)NCC(=O)N[C@@H](Cc2ccc(-c3ccc(C(=O)O)cc3)cc2)C(=O)N[C@@H](Cn2ncc3ccccc32)C(=O)N[C@@H](CN)C(=O)N[C@H](C)C(=O)N[C@@H](CCc2ccc(O)cc2)C(=O)N[C@@H](Cc2ccc(-c3ccc(C(=O)O)cc3)cc2)C(=O)N[C@@H](Cc2c[nH]c3ccccc23)C(=O)N[C@@H](Cc2ccc(C(=O)O)cc2)C(=O)NCC(=O)N2C[C@H](N)C[C@H]2C(=O)N[C@@H]([C@@H](C)c2cccc3ccccc23)C(=O)N[C@@H](CC(=O)O)C(=O)N1C
# B11: SEQ ID NO: 14 (peptide)
# peptide: cyclo([Bip(4'-COOH)]W[Phe(4-COOH)]G[Pro(trans-4-NH2)][1Nal(3S-Me)]D[dNMeA]G[Bip(4'-COOH)][Ala(indolin-1-yl)][Dap][dA][hTyr])
# SMILES: C[C@@H]1C(=O)NCC(=O)N[C@@H](Cc2ccc(-c3ccc(C(=O)O)cc3)cc2)C(=O)N[C@@H](CN2CCc3ccccc32)C(=O)N[C@@H](CN)C(=O)N[C@H](C)C(=O)N[C@@H](CCc2ccc(O)cc2)C(=O)N[C@@H](Cc2ccc(-c3ccc(C(=O)O)cc3)cc2)C(=O)N[C@@H](Cc2c[nH]c3ccccc23)C(=O)N[C@@H](Cc2ccc(C(=O)O)cc2)C(=O)NCC(=O)N2C[C@H](N)C[C@H]2C(=O)N[C@@H]([C@@H](C)c2cccc3ccccc23)C(=O)N[C@@H](CC(=O)O)C(=O)N1C
# B12: SEQ ID NO: 15 (peptide)
# peptide: cyclo([Bip(4'-COOH)]W[Phe(4-COOH)]G[Pro(trans-4-NH2)][1Nal(3S-Me)]D[dNMeA]G[Bip(4'-COOH)][1Nal][Dab][Aib]G)
# SMILES: C[C@@H]1C(=O)NCC(=O)N[C@@H](Cc2ccc(-c3ccc(C(=O)O)cc3)cc2)C(=O)N[C@@H](Cc2cccc3ccccc23)C(=O)N[C@@H](CCN)C(=O)NC(C)(C)C(=O)NCC(=O)N[C@@H](Cc2ccc(-c3ccc(C(=O)O)cc3)cc2)C(=O)N[C@@H](Cc2c[nH]c3ccccc23)C(=O)N[C@@H](Cc2ccc(C(=O)O)cc2)C(=O)NCC(=O)N2C[C@H](N)C[C@H]2C(=O)N[C@@H]([C@@H](C)c2cccc3ccccc23)C(=O)N[C@@H](CC(=O)O)C(=O)N1C
# Target: Recombinant human IL-1β (BioLegend 579404) (human, UniProt P01584 117-269)
# Assay: cell-based or functional assay
row,Binder,MRC5 IC50 [nM]
1,B1,0.0918
2,B2,0.0233
3,B3,0.085
4,B4,0.492
5,B5,0.16
6,B6,0.973
7,B7,0.0602
8,B8,0.0551
9,B9,0.86
10,B10,0.031
11,B11,0.0297
12,B12,0.653
